Laboratory results reported in US20240358805A1 (BRIGHAM AND WOMEN S HOSPITAL, published 2024).
Substitutions are numbered along the chain they refer to.

B1: monoclonal antibody 71A1 (antibody, V domains shown)
VH: EVQLQESGAELVRPGVSVKLSCKTSDYTFTSYWLHWFKQRPEQGLERIGEIDPSNGDADYSEKFKSKATLTVDKSSTTAYMQLASLTSEDSAVYYCAREAYGHYFDYWGQGTTLTVSS
VL: DVVMTQTPLSLPVSLGDQASISCRSSQSLEHSNGNTYLHWYLQKPGQSPKLLIYKLSNRFSGVPDRFSGSGSGTDFTLKISRVEAEDLGVYFCSQSTHVPYTFGGGTKLEIK
notes: Biotinylated when used as capture on streptavidin beads, resin or plates; also called Mab 71A1; mab 71 A1
B2: monoclonal antibody 1G5 (antibody, V domains shown)
VH: B1 VH with E1Q, E6Q, S7P
VL: B1 VL
notes: Biotinylated when used as capture; also called Mab 1G5; isolate 1g

Columns and labels:
[1] = biological target: T1, S26C Aβ40 reduced by DTT to its monomeric form; assay: 71A1 capture / 3D6 detector sandwich immunoassay, S26C Aβ40 dimer native or reduced by DTT
T1 construct: The dimer of m16 after reduction with DTT; also called reduced monomeric counterpart; monomeric Aβ

[2] = biological target: T2, peptide mimetic 3; assay: phage display panning (Ph.D.-12 library) on immobilized 71A1
T2 construct: As for peptide mimetic 1; also called peptide 3
T2 peptide: SPPTYEIHHFSP
Excerpt: (§1) A New England Biolabs (NEB) Ph.D.-12™ Phage Display Peptide Library Kit (instructions attached) was used to isolate amino acid residue peptide ligands (referred to herein as peptide mimetics) that bound to immobilized Mab 71A1. The New England Biolabs Ph.D.-12™ Phage Display Peptide Library Kit is a combinatorial library of random, 12 amino acid peptides (12-mers) fused to a minor coat protein (pIII) of the M13 bacteriophage. The peptide was expressed as a fusion with a coat protein that produces a display of the fused protein on the surface of the bacteriophage. The library consists of 2.7×109 electroporated sequences, amplified once to yield approximately 55 copies of each sequence in 10 μl of the supplied phage.
(§2) Immobilized 71A1 antibody was used to isolate the 12 amino acid peptides, shown in FIG. 13, that bound to the variable region. Thermo Scientific™ AminoLink Plus Coupling Resin was used to immobilize Mab 71A1. Negative control particles were made using monoclonal antibody 3C7 with specificity for an irrelevant peptide sequence. The Thermo Scientific™ AminoLink Plus Coupling Resin Protocol is provided that was used to produce the 71A1 particles panned with the NEB library. Briefly, 2 mL aminolink particle slurry was washed twice with 10 mL, 0.1 M sodium bicarbonate buffer pH 10 in a 15 mL conical tube by centrifugation for 10 minutes at 2000×g. 10 mgs of 71A1 antibody in this binding buffer was then added to the particles transferred to a 2 mL eppendorph tube and rotated at room temperature for 2 hours. The slurry was then added to a Millipore, Ultrafree-MC centrifugal filter unit and the resin washed 3× in 2 mL, 0.1M sodium phosphate, 0.15M NaCl, pH 7.2 binding buffer. Spun particles were then mixed with 2 mL pH 7.2 buffer and 40 μl of 50 mM Sodium Cyanoborohydride Solution and rotated for 4 hours. The aminoLink gel contains aldehyde functional groups that spontaneously react with primary amines on the antibody. The Schiff base bonds that form are then reduced to stable secondary amine bonds in the presence of the mild reducing agent, sodium cyanoborohydride. Particles were then washed twice with 2 mL 1M Tris HCL, pH 7.4, resuspended in 2 mL of this same buffer and 40 μl Sodium cyanoborohydride to block unbound sites on the particles, and rotated for 30 minutes. Particles washed 5 times with 1M sodium chloride were suspended in 1 mL PBS.

[3] = biological target: T3, peptide mimetic 12; assay: as above
T3 construct: As for peptide mimetic 1; also called peptide 12
T3 peptide: SPSHMYPSSLIQ
Excerpt: as §1, §2

[4] = biological target: T4, peptide mimetic 9; assay: as above
T4 construct: As for peptide mimetic 1; also called peptide 9
T4 peptide: GPHTYPPQIALT
Excerpt: as §1, §2

[5] = biological target: T5, peptide mimetic 5; assay: as above
T5 construct: As for peptide mimetic 1; also called peptide 5
T5 peptide: DSVVPSYEVHHK
Excerpt: as §1, §2

[6] = biological target: T6, peptide mimetic 6; assay: as above
T6 construct: As for peptide mimetic 1; also called peptide 6
T6 peptide: TPNNTTSHRYPD
Excerpt: as §1, §2

[7] = biological target: T7, peptide mimetic 7; assay: as above
T7 construct: As for peptide mimetic 1; also called peptide 7
T7 peptide: GWYEIHHPSQRA
Excerpt: as §1, §2

[8] = biological target: T8, peptide mimetic 4; assay: as above
T8 construct: As for peptide mimetic 1; also called peptide 4
T8 peptide: YQIHHNTQKRGG
Excerpt: as §1, §2

[9] = biological target: T9, peptide mimetic 10; assay: as above
T9 construct: As for peptide mimetic 1; also called peptide 10
T9 peptide: EMAPVASANLPP
Excerpt: as §1, §2

[10] = biological target: T10, peptide mimetic 1; assay: as above
T10 construct: also called peptide 1
T10 peptide: QIYEVHHRGYTD
Excerpt: as §1, §2

[11] = biological target: T11, peptide mimetic 2; assay: as above
T11 construct: As for peptide mimetic 1; also called peptide 2
T11 peptide: NLHQYPTAMQAR
Excerpt: as §1, §2

[12] = biological target: T12, Aβ / Aβ oligomers in human CSF (human, UniProt P05067 672-713); assay: 71A1 capture / 3D6 detector sandwich immunoassay, sample with or without 8M GnCl
T12 construct: Natural mixture; also called CSF Aβ; CSF Aβ oligomers
T12 sequence (P05067 672-713): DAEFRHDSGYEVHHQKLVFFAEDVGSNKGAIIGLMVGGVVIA

[13] = biological target: T13, Aβ oligomers (oAβ) in human plasma (human, UniProt P05067 672-713); assay: as above
T13 construct: Natural mixture; also called plasma oAβ; 71A1-positive oligomers in plasma
T13 sequence (P05067 672-713): as above

[14] = biological target: T14, soluble Aβ / Aβ oligomers (oAβ) of human AD brain extracts (human, UniProt P05067 672-713); assay: as above
T14 construct: Natural mixture; also called Aβ from human brain soaking extract; AD brain soaking extract oAβ
T14 sequence (P05067 672-713): as above

[15] = biological target: T15, NETL-1 cyclized synthetic peptide immunogen (cyclized on resin through the cysteines C4 and C27; N-terminal cysteine used for conjugation to maleimide-activated plates); assay: indirect ELISA, peptide on maleimide-activated plate
T15 construct: Aβ residues 9-18, then Pro-Asn, then the same ten residues backwards; also called cyclized peptide; the immunogen
T15 peptide: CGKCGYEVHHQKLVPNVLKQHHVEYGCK
Excerpt: (§3) The rationale behind the NETL-1 immunogen was that a more focused epitope formed by a cyclized peptide may restrict the response to a dimer structure derived from the chosen 10aa sequence with minimal or no induction of responses to the monomer 10aa peptide sequence found within full length Aβ40. Both responses were observed. We can account for this, in part, by the fact that there may always be a minimal epitope available for recognition that is cross-reactive with the monomer sequence no matter how small the peptide structure. Several monoclonal antibodies specific for both NETL-1 and NETL-2 were isolated. Two isolates, 7a and 1g stood out that bound to NETL-1 but not to NETL-2 or Aβ40. These isolates were sub-cloned for further characterization. Two isolated subclones, Mab 71A1 and 1G5 were chosen, grown in tissue culture and purified for confirmation of specificity and for future studies. Both 71A1 and 1G5 monoclonal antibodies bound to the cyclized peptide, NETL-1 and not to control wells, Aβ40 monomer peptide or control peptide NETL-2 (FIG. 2). FIG. 2 is a standard, indirect enzyme linked immunosorbent assay (ELISA) with the purified monoclonal antibodies assayed for binding to Aβ40, NETL 1 or NETL 2 peptides conjugated to malemide-activated (SH-reactive) micro titer plates. After one hour incubation, the wells were washed and then 100 ul of a secondary, Horseradish peroxidase (HRPO)-conjugated goat anti-mouse antibody was added and the plates, incubated for an additional hour before addition of TMB (3,3′,5,5′-Tetramethylbenzidine) substrate. Absorbance was measured in a spectrophotometer at 650 nm.

[16] = biological target: T16, full length Aβ40 with a C-terminal cysteine (conjugated to maleimide-activated plate through the added cysteine); assay: as above
T16 construct: also called Aβ40 monomer peptide
Excerpt: as §3

[17] = biological target: T17, peptide mimetic 8; assay: indirect ELISA, peptide at 10 µg/mL on maleimide-activated plate, absorbance at 650 nm
T17 construct: As for peptide mimetic 1; also called peptide 8
T17 peptide: SYELHHKPLHAQ
Method: (§4) A standard, indirect enzyme linked immunosorbent assay (ELISA) with purified monoclonal antibody 71A1 was used to assay for binding to peptide mimetics 1-13 (sequences in FIG. 13) conjugated to maleimide-activated micro titer plates at 10 μg/mL in 0.1M Sodium bicarbonate buffer pH10 and blocked with PBS and 2% BSA. After one hour incubation, the wells were washed and then 100 ul of a secondary, Horseradish peroxidase (HRPO)-conjugated goat anti-mouse antibody was added and the plates, incubated for an additional hour before addition of TMB (3,3′,5,5′-Tetramethylbenzidine) substrate. Absorbance was measured in a spectrophotometer at 650 nm.

[18] = biological target: T18, peptide mimetic 11; assay: as above
T18 construct: As for peptide mimetic 1; also called peptide 11
T18 peptide: NMYEWNHKDPNM
Method: as §4

[19] = biological target: T19, peptide mimetic 13; assay: as above
T19 construct: As for peptide mimetic 1; also called peptide 13
T19 peptide: QVYEVHHRGYTD
Method: as §4

| Binder | fold less binding than to higher order Aβ (non-reduced S26C dimer) [1] | binding result [2] | binding result [3] | binding result [4] | binding result [5] | binding result [6] | binding result [7] | binding result [8] | binding result [9] | binding result [10] | binding result [11] | decrease of 71A1/3D6 signal after 8M GnCl denaturation [12] | decrease of 71A1/3D6 signal after 8M GnCl denaturation [13] | decrease of 71A1/3D6 signal after 8M GnCl denaturation [14] | binding result [15] | binding result [16] | binding result [17] | binding result [18] | binding result [19] |
| --- | --- | --- | --- | --- | --- | --- | --- | --- | --- | --- | --- | --- | --- | --- | --- | --- | --- | --- | --- |
| B1 | > 100 fold | binds | binds | binds | binds | binds | binds | binds | binds | binds | binds | > 99% | > 84% | > 70% | binds | no binding | binds | binds | binds |
| B2 |  |  |  |  |  |  |  |  |  |  |  |  |  |  | binds | no binding |  |  |  |
